The values below come from paper PMC10397247.

Assay in all cases: two-hybrid library CCNG1;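 also: natural log of median RNA to DNA barcode read ratio; higher means stronger binding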
The target in one assay is T1, O7-bS.
T1 chain: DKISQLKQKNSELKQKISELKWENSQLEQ

For the next assay, the target named is T2, O3-bS.
T2 chain: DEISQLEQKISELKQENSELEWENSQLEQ

For another assay, the target named is T3, O8-bS.
T3 chain: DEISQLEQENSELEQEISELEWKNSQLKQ

For the next assay, the target named is T4, O16-bS.
T4 chain: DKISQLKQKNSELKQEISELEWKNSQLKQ

The next assay has as its target T5, O4-bS.
T5 chain: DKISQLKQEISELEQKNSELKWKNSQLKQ

A further assay has as its target T6, O2-bS.
T6 chain: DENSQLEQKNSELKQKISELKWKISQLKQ

In the next assay the target is T7, O5-bS.
T7 chain: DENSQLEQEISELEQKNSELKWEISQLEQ

A further assay concerns the target T8, O6-bS.
T8 chain: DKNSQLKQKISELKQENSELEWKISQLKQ

The target of the next assay is T9, 4H3974-bN.
T9 chain: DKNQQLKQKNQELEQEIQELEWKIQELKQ

The target of the next assay is T10, 4H850-bN.
T10 chain: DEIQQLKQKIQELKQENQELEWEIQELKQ

Another assay addresses T11, O15.
T11 chain: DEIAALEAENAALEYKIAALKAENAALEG

The target in another assay is T12, 4H570-bN.
T12 chain: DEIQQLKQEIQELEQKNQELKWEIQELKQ

Another assay addresses T13, 4H3858-bN.
T13 chain: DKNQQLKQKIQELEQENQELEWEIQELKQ

The next assay has as its target T14, 4H4038-bH.
T14 chain: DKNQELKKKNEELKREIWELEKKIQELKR

Another assay addresses T15, P5A.
T15 chain: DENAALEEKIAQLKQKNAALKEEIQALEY

The target of the next assay is T16, P6A.
T16 chain: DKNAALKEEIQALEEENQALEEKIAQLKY

For another assay, the target named is T17, P4A.
T17 chain: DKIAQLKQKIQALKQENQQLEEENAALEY

Another assay concerns the target T18, P9A.
T18 chain: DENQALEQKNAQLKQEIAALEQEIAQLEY

The target of a further assay is T19, P7A.
T19 chain: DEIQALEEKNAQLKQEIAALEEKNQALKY

A further assay concerns the target T20, P8A.
T20 chain: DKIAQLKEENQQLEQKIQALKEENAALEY

The target of another assay is T21, 4H3974-bA.
T21 chain: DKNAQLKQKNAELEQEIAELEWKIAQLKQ

A further assay concerns the target T22, 4H3628-bA.
T22 chain: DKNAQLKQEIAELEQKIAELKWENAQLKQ

The next assay has as its target T23, 4H3298-bA.
T23 chain: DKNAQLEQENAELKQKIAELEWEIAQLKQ

The next assay has as its target T24, 4H3817-bA.
T24 chain: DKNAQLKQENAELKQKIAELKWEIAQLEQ

For another assay, the target named is T25, 4H3613-bA.
T25 chain: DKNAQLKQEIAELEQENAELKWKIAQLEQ

The target of the next assay is T26, 4H3926-bA.
T26 chain: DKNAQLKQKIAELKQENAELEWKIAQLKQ

The target of the next assay is T27, 4H850-bA.
T27 chain: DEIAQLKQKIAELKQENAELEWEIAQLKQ

For another assay, the target named is T28, 4H3462-bA.
T28 chain: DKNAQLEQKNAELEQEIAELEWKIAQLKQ

Another assay concerns the target T29, 4H3175-bA.
T29 chain: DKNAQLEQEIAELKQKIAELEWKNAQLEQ

Another assay deals with T30, 4H1899-bA.
T30 chain: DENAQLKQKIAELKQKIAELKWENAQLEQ

The target of another assay is T31, 4H626-bA.
T31 chain: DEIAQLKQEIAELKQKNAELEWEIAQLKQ

In the next assay the target is T32, 4H3497-bA.
T32 chain: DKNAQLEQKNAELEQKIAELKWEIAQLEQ

The next assay has as its target T33, 4H591-bA.
T33 chain: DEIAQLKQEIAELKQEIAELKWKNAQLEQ

A further assay addresses T34, 4H1985-bA.
T34 chain: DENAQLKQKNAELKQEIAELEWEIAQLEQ

A further assay has as its target T35, 4H3277-bA.
T35 chain: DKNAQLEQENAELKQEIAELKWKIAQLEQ

The target in the next assay is T36, 4H2586-bN.
T36 chain: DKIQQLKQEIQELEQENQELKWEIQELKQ

A further assay deals with T37, 4H906-bA.
T37 chain: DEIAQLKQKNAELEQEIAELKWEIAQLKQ

A further assay has as its target T38, 4H3858-bA.
T38 chain: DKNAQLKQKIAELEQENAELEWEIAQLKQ

For a further assay, the target named is T39, 4H3162-bA.
T39 chain: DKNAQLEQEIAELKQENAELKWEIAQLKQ

The target of another assay is T40, 4H570-bA.
T40 chain: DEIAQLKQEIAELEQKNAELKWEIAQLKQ

A further assay addresses T41, O14-bA.
T41 chain: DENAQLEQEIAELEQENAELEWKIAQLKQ

The target in the next assay is T42, 4H883-bA.
T42 chain: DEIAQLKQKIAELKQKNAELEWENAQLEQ

The target in another assay is T43, 4H953-bA.
T43 chain: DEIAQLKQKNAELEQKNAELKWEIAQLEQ

In the next assay the target is T44, 4H908-bA.
T44 chain: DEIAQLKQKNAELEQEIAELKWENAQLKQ

In another assay the target is T45, 4H918-bA.
T45 chain: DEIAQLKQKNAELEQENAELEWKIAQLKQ

Another assay concerns the target T46, O5-bP.
T46 chain: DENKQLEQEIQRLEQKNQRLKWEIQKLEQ

The target in a further assay is T47, 4H967-bA.
T47 chain: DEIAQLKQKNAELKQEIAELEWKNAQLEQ

In a further assay the target is T48, 4H470-bH.
T48 chain: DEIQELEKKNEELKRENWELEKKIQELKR

In another assay the target is T49, 4H3961-bH.
T49 chain: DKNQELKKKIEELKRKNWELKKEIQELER

Another assay concerns the target T50, 4H3907-bH.
T50 chain: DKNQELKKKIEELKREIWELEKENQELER

A further assay concerns the target T51, 4H3172-bA.
T51 chain: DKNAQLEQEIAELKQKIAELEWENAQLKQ

The target of another assay is T52, O8-bN.
T52 chain: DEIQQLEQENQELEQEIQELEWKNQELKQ

A further assay has as its target T53, 4H3414-bA.
T53 chain: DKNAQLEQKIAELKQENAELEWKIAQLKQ

The target in a further assay is T54, 4H570-bH.
T54 chain: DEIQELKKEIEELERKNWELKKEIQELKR

For another assay, the target named is T55, 4H3631-bA.
T55 chain: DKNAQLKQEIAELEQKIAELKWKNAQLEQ

In the next assay the target is T56, 4H584-bA.
T56 chain: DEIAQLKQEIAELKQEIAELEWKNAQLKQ

The next assay concerns the target T57, 4H3129-bA.
T57 chain: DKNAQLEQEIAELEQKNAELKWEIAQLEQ

Another assay deals with T58, 4H619-bA.
T58 chain: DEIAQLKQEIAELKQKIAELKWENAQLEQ

In another assay the target is T59, 4H3638-bA.
T59 chain: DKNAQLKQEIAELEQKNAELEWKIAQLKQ

With DKISQLKQKNSELKQEISELEWKNSQLKQ [O16-bS], the interaction score was -0.709 with O7-bS; -1.15 in the assay with O3-bS; -1.97 in the assay with O8-bS; -1.23 in the assay with O16-bS; -0.194 with O4-bS; -0.368 in the assay with O2-bS. The figures for the interaction score with O5-bS and with O6-bS were -3.22 and -0.0299, respectively.

As to DKNQQLKQKIQELEQENQELEWEIQELKQ [4H3858-bN], the interaction score in the assay with 4H3974-bN was -1.21; in the assay with 4H850-bN, -1.15; with O15 it was -1.67; with 4H570-bN it was 0.143; with 4H3858-bN, -0.115.

Regarding DKNQELKKKNEELKREIWELEKKIQELKR [4H4038-bH], the interaction score in the assay with 4H4038-bH was found to be 0.656.

DKIAQLKQKIQALKQENQQLEEENAALEY [P4A]: the interaction score in the assay with P5A was -2.12; with P6A it was -1.35; in the assay with P4A it was -2.18; with P9A it was -1.08; with P7A it was -2.13; with P8A, -1.42.

DENAQLKQKIAELKQKIAELKWENAQLEQ [4H1899-bA]: the interaction score with 4H3974-bA was -0.528; in the assay with 4H3628-bA, 0.582; with 4H3298-bA it was -0.142; with 4H3817-bA it was -0.216; in the assay with 4H3613-bA, -1.23; with 4H3926-bA, -1.03. The interaction score in the assay with 4H850-bA was -0.973; with 4H3462-bA it was -0.31; with 4H3175-bA, -1.03; with 4H1899-bA, -0.612; with 4H626-bA it was -1.38; with 4H3497-bA, -0.482. Moreover, the interaction score with 4H591-bA was -1.45; with 4H1985-bA, 0.619; in the assay with 4H3277-bA it was -1.41; with 4H2586-bN, -1.99; in the assay with 4H906-bA, -0.765; with 4H3858-bA it was -0.565. Also, the interaction score was -1.28 in the assay with 4H3162-bA and 0.517 with 4H570-bA.

DEIAQLKQKIAELKQKNAELEWENAQLEQ [4H883-bA]: the interaction score is 0.814 with O14-bA; -0.18 in the assay with 4H883-bA; -1.68 with 4H953-bA; -1.33 with 4H908-bA; -1.15 in the assay with 4H918-bA; -1.74 with O5-bP. Moreover, in the assay with 4H967-bA, the interaction score is -1.69.

As for DKNQELKKKIEELKREIWELEKENQELER [4H3907-bH], the interaction score was -0.458 in the assay with 4H470-bH, -0.402 in the assay with 4H3961-bH, 0.462 with 4H3907-bH and -0.272 with 4H4038-bH.

As for DENAQLKQKNAELKQEIAELEWEIAQLEQ [4H1985-bA], the interaction score was -0.265 in the assay with 4H3974-bA; -1.35 in the assay with 4H3628-bA; -0.906 with 4H3298-bA; -0.287 with 4H3817-bA; -1.14 with 4H3613-bA; -0.781 with 4H3172-bA. Besides, the interaction score with 4H3926-bA was -1.07; with 4H850-bA, -1.45; with 4H3462-bA, -0.708; with O8-bN it was -2.01; with 4H953-bA, -1.8; with 4H3414-bA, -1.09. The interaction score with 4H570-bH is -0.714; with 4H3175-bA it was -1.53; in the assay with 4H3631-bA, -1.21; in the assay with 4H626-bA, -1.19; in the assay with 4H584-bA it was -1.42; with 4H3497-bA, -1.03. Further, the interaction score with 4H591-bA was -1.46; with 4H3129-bA, -1.14; with 4H619-bA it was -0.916; in the assay with 4H1985-bA, -0.898; with 4H3277-bA, -0.983; in the assay with 4H906-bA, -1.08. In addition, the interaction score in the assay with 4H3858-bA is -1.31; with 4H3638-bA, -0.944; with 4H3162-bA, -1.66; with 4H570-bA, -1.97.
